{"source": "patent US20030119733A1", "about": "“Compositions and methods for inhibiting hepatocyte invasion by malarial sporozoites” (New York University, priority 1992, published 2003)", "key": {"[1]": {"experiment": "Clearance studies of 125I-labeled proteins", "format": "in vivo, mouse", "conditions": "monomeric fraction of CS27IVC, or Falc-1; i.v., between 2 and 15 minutes", "method": "Clearance Studies: Mice were anesthetized with ether, and injected with 10^5 cpm of ^125I-labeled CS27IVC or Falc-1 via the periorbital sinus. At two, five and fifteen minutes after injection, the mice were exsanguinated, the organs removed, rinsed in TBS, blotted dry on filter paper, and counted for radioactivity. To estimate the amounts of blood contaminating the various organs, we repeated the same procedure in mice injected with 100 μl (1.5×10^5 cpm) of ^51Cr-labeled RBC. The mean volumes of blood in the liver, spleen and kidney of the exsanguinated animals were 75, 24, and 35 μl respectively. In all other organs, the amount of blood was negligible, i.e., less than 15 μl. The percent of injected dose of CS which was retained in the various organs was calculated as described as follows: [formula]\nRadiolabeled Falc-1 (FIG. 30B), and the aggregated (FIG. 30C) and monomeric (FIG. 30A) fractions of radiolabeled CS27IVC proteins were injected intravenously into the retroorbital sinuses of mice. The animals were sacrificed 2, 5 and 15 minutes later, and the amounts of CS in the blood and in various organs were measured. Additionally, the radioactivity associated with the various organs was calculated. […]"}, "[2]": {"experiment": "Localization in organs after intravenous injection (light and electron microscopy)", "format": "in vivo, mouse", "conditions": "100 μg i.v., 5 minutes", "method": "In other experiments, light and electron microscopy were used to localize CS in the various organs. The mice were injected i.v. with 100 μg of unlabeled CS27IVC or Falc-1 via the retroorbital plexus. The mice were exsanguinated five minutes after injection, the organs removed, rinsed in TBS, blotted dry, and then snap frozen in liquid nitrogen for light microscopy. For electron microscopy, the organs were cut into small pieces and fixed in a mixture of 0.1% glutaraldehyde and 4% paraformaldehyde.\nLight Microscopy: The frozen tissue was embedded in Tissue Tek O.C.T. (Miles Inc., Naperville, Ill.) and cut into 5 μm sections. Sections were dried for 30 minutes, fixed for 10 minutes in 4% paraformaldehyde, and either used immediately or stored at 4° C. in PBS containing 1% BSA, 0.5% Tween-20. After blocking with the same buffer, the sections were incubated with mAb 2A10 conjugated to FITC, and examined in a fluorescence microscope.\nElectron Microscopy: The fixed liver specimens were dehydrated in ethanol and embedded in Lowicryl K4M at −20° C. (Frevert et al., Infect. and Immun. 80:2349 (1992)). After UV polymerization, sections were cut with a RMC MT-7 ultramicrotome and stained by sequential incubation with 15 μg/ml mAb 2A10 and protein A gold 10 nm (PAG10) (1:30, Amersham, Arlington, Ill.). Cerami et al., Cell 70:1021 (1992). Control sections were strained only with the gold conjugate. […]"}}}
{"molecule": "Falciparum-1: Same as Falciparum-2 minus most of Region II+ (P. falciparum residues 43-348) (protein) AGTNLYNELEMNYYGKQENWYSLKKNSRSLGENDDGNNNNGDNGREGKDEDKRDGNNEDNEKLRKPKHKKLKQPGDGNPDPNANPNVDPNANPNVDPNANPNVDPNANPNANPNANPNANPNANPNANPNANPNANPNANPNANPNANPNANPNANPNANPNANPNVDPNANPNANPNANPNANPNANPNANPNANPNANPNANPNANPNANPNANPNANPNANPNANPNANPNANPNANPNANPNKNNQGNGQGHNMPNDPNRNVDENANANNAVKNNNNEEPSDKHIEQYLKKIKNSISTEWSP", "values": [{"measurement": "injected counts recovered in the blood and in various organs", "setting": "[1]", "result": "about 40%"}, {"measurement": "staining of kidney or other organs with FITC-labeled mAb 2A10", "setting": "[2]", "result": "No staining"}, {"measurement": "staining of liver with FITC-labeled mAb 2A10", "setting": "[2]", "result": "No staining"}]}
